Measurements taken from patent US11230591 (Merck Sharp & Dohme, dated 2022).

What was measured:
CMV virions = target: T1, CMV virions; assay: virion ELISA
T1 construct: also called whole virions

[1] = target: gB on infectious CMV (neutralization assays) (human cytomegalovirus); assay: cell-based or functional assay

B1: 3-25 (antibody, V domains shown)
VH: QVQLVESGGGVVQPGRSLRLSCAASGFTFSNHGLHWVRQPPGKGLEWVAVVSKDGTNEHYADSVRGRFTISRDNSKNTLYLLMKSLRLEDTAVYYCAREGYCGDDRCYSGQPDYWGQGILVTVSS
VL: EIVLTQFPATLSLSPGERATLSCRASQSVGRYLAWYQQKPGQAPRLLIYDSSNRATGVPARFSGSGSGTDFTLSISSLEPEDFAVYFCQQRSHWPPLTFGGGTKVEIK
notes: also called antibody 3-25; clone 3-25
B1 was tested, and the EC50 (CMV virions) was 0.04 µg/mL and the “EC50 Neutralizing” value [1] was 0.3 µg/mL.
